Experimental data reported in the supplement of paper PMC5998384.

Legend:
HeLa Kyoto [1] = assay: solubility in G1/S (NP-40 vs SDS abundance) (log2 ratio); higher = more soluble; conditions: cell cycle stage: G1/S
HeLa Kyoto [2] = assay: melting temperature (median over replicates), in situ; higher = more thermally stable
HeLa Kyoto [3] = assay: solubility change mitosis vs G1/S (difference of NP-40 vs SDS log2 ratios) (log2 ratio difference); higher = more soluble in mitosis
HeLa Kyoto [4] = assay: thermal stability score vs G1/S (z-score of summed log2 fold changes over temperatures); higher = more thermally stable than in G1/S
[5] = cell cycle stage: early G1 (4.5 h after nocodazole release)
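Wherever melting temperature (median over replicates), in situ is given: HeLa Kyoto cells synchronized by double thymidine or nocodazole block, proteins quantified by TMT10plex mass spectrometry, three independent biological replicates.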
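Wherever solubility change mitosis vs G1/S (difference of NP-40 vs SDS log2 ratios) is given: synchronized HeLa Kyoto cells (double thymidine block for G1/S, nocodazole release for mitosis), protein amounts in NP-40 versus SDS lysates quantified by mass spectrometry, three biological replicates.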
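Wherever solubility in G1/S (NP-40 vs SDS abundance) is given: HeLa Kyoto cells arrested at G1/S by double thymidine block, proteins quantified by TMT10plex mass spectrometry in mild NP-40 versus SDS extracts, three biological replicates.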
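Wherever thermal stability score vs G1/S (z-score of summed log2 fold changes over temperatures) is given: synchronized HeLa Kyoto cells, proteins quantified by TMT10plex mass spectrometry, three biological replicates, mitosis taken 0.5 h after nocodazole release, G1/S directly after double thymidine block.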

Sequence	solubility in G1/S (log2) (HeLa Kyoto [1])	melting temperature (HeLa Kyoto [2]; cell cycle stage: G1/S) [°C]	melting temperature (HeLa Kyoto [2]; cell cycle stage: mitosis) [°C]	solubility change mitosis (log2) (HeLa Kyoto [3])	thermal stability score (HeLa Kyoto [4]; [5])	thermal stability score (HeLa Kyoto [4]; cell cycle stage: mitosis)
MASSSGSKAEFIVGGKYKLVRKIGSGSFGDIYLAINITNGEEVAVKLESQKARHPQLLYESKLYKILQGGVGIPHIRWYGQEKDYNVLVMDLLGPSLEDLFNFCSRRFTMKTVLMLADQMISRIEYVHTKNFIHRDIKPDNFLMGIGRHCNKLFLIDFGLAKKYRDNRTRQHIPYREDKNLTGTARYASINAHLGIEQSRRDDMESLGYVLMYFNRTSLPWQGLKAATKKQKYEKISEKKMSTPVEVLCKGFPAEFAMYLNYCRGLRFEEAPDYMYLRQLFRILFRTLNHQYDYTFDWTMLKQKAAQQAASSSGQGQQAQTPTGKQTDKTKSNMKGF [CSNK1A1]	-0.00541	49.6	50.2	-0.0146	1.17	1.69
MAAGGGGGSSKASSSSASSAGALESSLDRKFQSVTNTMESIQGLSSWCIENKKHHSTIVYHWMKWLRRSAYPHRLNLFYLANDVIQNCKRKNAIIFRESFADVLPEAAALVKDPSVSKSVERIFKIWEDRNVYPEEMIVALREALSTTFKTQKQLKENLNKQPNKQWKKSQTSTNPKAALKSKIVAEFRSQALIEELLLYKRSEDQIELKEKQLSTMRVDVCSTETLKCLKDKTGGKKFSKEFEEASSKLEEFVNGLDKQVKNGPSLTEALENAGIFYEAQYKEVKVVANAYKTFANRVNNLKKKLDQLKSTLPDPEESPVPSPSMDAPSPTGSESPFQGMGGEESQSPTMESEKSATPEPVTDNRDVEDMELSDVEDDGSKIIVEDRKEKPAEKSAVSTSVPTKPTENISKASSCTPVPVTMTATPPLPKPVNTSLSPSPALALPNLANVDLAKISSILSSLTSVMKNTGVSPASRPSPGTPTSPSNLTSGLKTPAPATTTSHNPLANILSKVEITPESILSALSKTQTQSAPALQGLSSLLQSVTGNPVPASEAASQSTSASPANTTVSTIKGRNLPSSAQPFIPKSFNYSPNSSTSEVSSTSASKASIGQSPGLPSTTFKLPSNSLGFTATHNTSPAAPPTEVTICQSSEVSKPKLESESTSPSLEMKIHNFLKGNPGFSGLNLNIPILSSLGSSAPSESHPSDFQRGPTSTSIDNIDGTPVRDERSGTPTQDEMMDKPTSSSVDTMSLLSKIISPGSSTPSSTRSPPPGRDESYPRELSNSVSTYRPFGLGSESPYKQPSDGMERPSSLMDSSQEKFYPDTSFQEDEDYRDFEYSGPPPSAMMNLEKKPAKSILKSSKLSDTTEYQPILSSYSHRAQEFGVKSAFPPSVRALLDSSENCDRLSSSPGLFGAFSVRGNEPGSDRSPSPSKNDSFFTPDSNHNSLSQSTTGHLSLPQKQYPDSPHPVPHRSLFSPQNTLAAPTGHPPTSGVEKVLASTISTTSTIEFKNMLKNASRKPSDDKHFGQAPSKGTPSDGVSLSNLTQPSLTATDQQQQEEHYRIETRVSSSCLDLPDSTEEKGAPIETLGYHSASNRRMSGEPIQTVESIRVPGKGNRGHGREASRVGWFDLSTSGSSFDNGPSSASELASLGGGGSGGLTGFKTAPYKERAPQFQESVGSFRSNSFNSTFEHHLPPSPLEHGTPFQREPVGPSSAPPVPPKDHGGIFSRDAPTHLPSVDLSNPFTKEAALAHAAPPPPPGEHSGIPFPTPPPPPPPGEHSSSGGSGVPFSTPPPPPPPVDHSGVVPFPAPPLAEHGVAGAVAVFPKDHSSLLQGTLAEHFGVLPGPRDHGGPTQRDLNGPGLSRVRESLTLPSHSLEHLGPPHGGGGGGGSNSSSGPPLGPSHRDTISRSGIILRSPRPDFRPREPFLSRDPFHSLKRPRPPFARGPPFFAPKRPFFPPRY [RPRD2]	-0.0214	48	49.2	0.0816	2.07	4.95
MYLQVETRTSSRLHLKRAPGIRSWSLLVGILSIGLAAAYYSGDSLGWKLFYVTGCLFVAVQNLEDWEEAIFDKSTGKVVLKTFSLYKKLLTLFRAGHDQVVVLLHDVRDVSVEEEKVRYFGKGYMVVLRLATGFSHPLTQSAVMGHRSDVEAIAKLITSFLELHCLESPTELSQSSDSEAGDPASQS [C17ORF62]	-0.124	55	55.1	-0.128	-1.46	-0.834
MAAPEEHDSPTEASQPIVEEEETKTFKDLGVTDVLCEACDQLGWTKPTKIQIEAIPLALQGRDIIGLAETGSGKTGAFALPILNALLETPQRLFALVLTPTRELAFQISEQFEALGSSIGVQSAVIVGGIDSMSQSLALAKKPHIIIATPGRLIDHLENTKGFNLRALKYLVMDEADRILNMDFETEVDKILKVIPRDRKTFLFSATMTKKVQKLQRAALKNPVKCAVSSKYQTVEKLQQYYIFIPSKFKDTYLVYILNELAGNSFMIFCSTCNNTQRTALLLRNLGFTAIPLHGQMSQSKRLGSLNKFKAKARSILLATDVASRGLDIPHVDVVVNFDIPTHSKDYIHRVGRTARAGRSGKAITFVTQYDVELFQRIEHLIGKKLPGFPTQDDEVMMLTERVAEAQRFARMELREHGEKKKRSREDAGDNDDTEGAIGVRNKVAGGKMKKRKGR [DDX47]	-1.22	50.9	51.3	0.607	0.865	1.97
